One may read the Kd as the constant that tells how readily two partners part at equilibrium.

Data on 1 molecule can be found in publication PMC10931652, “Recombinant Rod Domain of Vimentin Reduces SARS-CoV-2 Viral Replication by Blocking Spike Protein–ACE2 Interactions” (International Journal of Molecular Sciences, 2024).

This experiment concerns the target T1, recombinant spike S1S2 extracellular domain of SARS-CoV-2 (S1S2ECD-His) (SARS-CoV-2, UniProt P0DTC2 14-1213, IRDye 800CW NHS ester label (as the probe of the peptide array only)).
T1 construct: also called SARS-CoV-2 spike protein; S1S2 protein
Nature of the experiment: BLI; S1S2ECD-His amine-coupled on AR2G sensors (10 µg/mL in 10 mM sodium acetate pH 4); rhRod in solution, 8 concentrations a run; Octet Red384; KD by non-linear regression of the steady-state response. The note with it: both partners purified. A general note: BLI is a label-free optical method that tracks binding on a fibre tip over time.

B1: recombinant rod domain of vimentin (rhRod) (domain or fragment)
chain: not shown
modifications: IRDye 800CW NHS ester label (as the probe of the peptide array only)
notes: also called rhRod-1 to rhRod-7 (lots)
For the molecule B1, the dissociation constant (Kd) was 163 nM.
